These results are taken from US6447783 (YEDA RESEARCH AND DEVELOPMENT, dated 2002).

For assay [1], the target named is T1, Recombinant mouse FGF9 (fibroblast growth factor 9) (mouse). The assay is described as follows: 125I-FGF9 binding to FGFR3 transfected CHO-KI cells at 4 C, in the presence of 1 mg/ml heparin.
Assay [2] concerns the target T1, Recombinant mouse FGF9 (fibroblast …). Description: 125I-FGF9 binding to FGFR3 transfected CHO 745 cells at 4 C, in the presence of 1 mg/ml heparin.
The target is the same in assay [3]. Description: FGF9 immobilised on heparin-sepharose, bound receptor-AP measured by alkaline phosphatase activity.

B1: Full length mouse FGFR3 expressed in CHO cells (wild type KI and heparan-sulfate deficient 745) (receptor)
chain: EPPGPEQRVVRRAAEVPGPEPSQQEQVAFGSGDTVELSCHPPGGAPTGPTVWAKDGTGLVASHRILVGPQRLQVLNASHEDAGVYSCQHRLTRRVLCHFSVRVTDAPSSGDDEDGEDVAEDTGAPYWTRPERMDKKLLAVPAANTVRFRCPAAGNPTPSISWLKNGKEFRGEHRIGGIKLRHQQWSLVMESVVPSDRGNYTCVVENKFGSIRQTYTLDVLERSPHRPILQAGLPANQTAILGSDVEFHCKVYSDAQPHIQWLKHVEVNGSKVGPDGTPYVTVLKTAGANTTDKELEVLSLHNVTFEDAGEYTCLAGNSIGFSHHSAWLVVLPAEEELMETDEAGSVYAGVLSYGVVFFLFILVVAAVILCRLRSPPKKGLGSPTVHKVSRFPLKRQVSLESNSSMNSNTPLVRIARLSSGEGPVLANVSELELPADPKWELSRTRLTLGKPLGEGCFGQVVMAEAIGIDKDRTAKPVTVAVKMLKDDATDKDLSDLVSEMEMMKMIGKHKNIINLLGACTQGGPLYVLVEYAAKGNLREFLRARRPPGMDYSFDACRLPEEQLTCKDLVSCAYQVARGMEYLASQKCIHRDLAARNVLVTEDNVMKIADFGLARDVHNLDYYKKTTNGRLPVKWMAPEALFDRVYTHQSDVWSFGVLLWEIFTPGGPSPYPGIPVEELFKLLKEGHRMDKPASCTHDLYMIMRECWHAVPSQRPTFKQLVEDLDRILTVTSTDEYLDLSVPFEQYSPGGQDTPSSSSSGDDSVFTHDLLPPGPPSNGGPRT
notes: whole, on cells; also called FGFR3 transfected CHO-KI cells
A word on the Kd: it is the equilibrium constant for the complex coming apart. On to B1, for which the Kd was 0.06 nM in assay [1] and 0.1 nM in assay [2].

B2: Soluble extracellular domain of murine FGFR1 coupled to human placental alkaline phosphatase (receptor)
chain: RPAPTLPEQAQPWGVPVEVESLLVHPGDLLQLRCRLRDDVQSINWLRDGVQLVESNRTRITGEEVEVRDSIPADSGLYACVTSSPSGSDTTYFSVNVSDALPSSEDDDDDDDSSSEEKETDNTKPNRRPVAPYWTSPEKMEKKLHAVPAAKTVKFKCPSSGTPNPTLRWLKNGKEFKPDHRIGGYKVRYATWSIIMDSVVPSDKGNYTCIVENEYGSINHTYQLDVVERSPHRPILQAGLPANKTVALGSNVEFMCKVYSDPQPHIQWLKHIEVNGSKIGPDNLPYVQILKTAGVNTTDKEMEVLHLRNVSFEDAGEYTCLAGNSIGLSHHSAWLTVLEALEERPAVMTSPLYLE
notes: extracellular domain; Collected from conditioned medium of transfected NIH 3T3 cells; also called FGFR1 fusion protein; FGFR-alkaline phosphatase fusion protein; not shown: human placental alkaline phosphatase
As for B2, in assay [3], the binding result is given as “no binding”.
